Measurements from patent US7211419B2, “Mutant carbamoylphosphate synthetase and method for producing compounds derived from carbamoylphosphate” (priority 2001, dated 2007).

Tested on: carbamoylphosphate synthetase (CPSase)
Assay: CPSase activity in reaction of carbamoylphosphate (CP) synthesis from glutamine or ammonia, protein extracts, CP by capillary zone electrophoresis
Assay type: biochemical, E. coli
Procedure: Then, the protein extracts from these 9 clones B-6969(pEL-carAB-NN) and one clone B-6969(pEL-carAB-6) were used to evaluate the activity and fbr of mutant CPSases in reaction of carbamoylphosphate (CP) synthesis from glutamine or ammonia.
The crude cellular extracts from cells were prepared by sonication of 20 mg wet cells pellet suspended in 0.5 ml of buffer A (200 mM K2HPO4/KH2PO4, pH 8.0, 1 mM EDTA, 1 mM PMSF, 1 mM DTT) and treated with solid ammonium sulfate to achieve 65% of saturation. After incubation for 10 min at 4° C., the suspensions were centrifuged at 13,000 rpm for 10 min and the precipitates were dissolved in 1 ml of buffer B (20 mM K2HPO4/KH2PO4, pH 8.0, 50 mM KCl, 1 mM PMSF, 1 mM DTT). The aliquots of obtained protein extracts were used to evaluate the CPSase activity. The schemes of reaction were following: Gln+CO2+2MgATP+H2O→NH2COOPO3^2−+2MgADP+Glu+P1 I. NH3+CO2+[…]+H2O→NH2COOPO3^2−+2MgADP+P1 II.
The 50 μl of each reaction mixture included:
reaction I—20 mM tris-HCl, pH 8.0, 100 mM KCl, 5 mM Na2CO3, 10 mM ATP, 10 mM MgCl2, 5 mM glutamine, 10 μl of protein extract;
reaction II—20 mM tris-HCl, pH 8.0, 100 mM KCl, 5 mM Na2CO3, 10 mM ATP, 10 mM MgCl2, 200mM (NH4)2SO4, 10 μl of protein extract. […]
After incubation for 10 min at 37° C. reactions were stopped by addition of equal volume of EtOH, cooled at −20° C. for 10 min and centrifuged at 13,000 rpm for 1 min at room temperature. Supernatants were cooled at −20° C.
The CP content in reaction mixtures was analyzed by capillary zone electrophoresis. The separation was performed on a Quanta 4000E Capillary Electrophoresis System (“Waters”, USA) with UV indirect detection at 254 nm. The injection was performed by hydrostatic for 25 s. The separation was carried out with an uncoated fused-silica capillary (75 u I.D.* 60cm, effective length 53 cm) and was operated at −25 kV potential. Temperature was maintained at 20° C. The separation buffer consisted of 50 mM Tris base, 25mM benzoic acid (for indirect detection), pH 8.5, 0.25mM TTAB (tetradecyl-trimethyl-ammonium bromide) (for reversion of electroosmotic flow).

B1: clone Wt: wild type E. coli CPSase; CarB 947-951 -Leu-Ser-Val-Arg-Glu- (SEQ ID NO: 28) (protein, UniProt P0A6F1 1-382; P00968 2-1073, looked up)
Carbamoyl phosphate synthase … 1: MIKSALLVLEDGTQFHGRAIGATGSAVGEVVFNTSMTGYQEILTDPSYSRQIVTLTYPHIGNVGTNDADEESSQVHAQGLVIRDLPLIASNFRNTEDLSSYLKRHNIVAIADIDTRKLTRLLREKGAQNGCIIAGDNPDAALALEKARAFPGLNGMDLAKEVTTAEAYSWTQGSWTLTGGLPEAKKEDELPFHVVAYDFGAKRNILRMLVDRGCRLTIVPAQTSAEDVLKMNPDGIFLSNGPGDPAPCDYAITAIQKFLETDIPVFGICLGHQLLALASGAKTVKMKFGHHGGNHPVKDVEKNVVMITAQNHGFAVDEATLPANLRVTHKSLFDGTLQGIHRTDKPAFSFQGHPEASPGPHDAAPLFDHFIELIEQYRKTAK
Carbamoyl phosphate synthase … 2: PKRTDIKSILILGAGPIVIGQACEFDYSGAQACKALREEGYRVILVNSNPATIMTDPEMADATYIEPIHWEVVRKIIEKERPDAVLPTMGGQTALNCALELERQGVLEEFGVTMIGATADAIDKAEDRRRFDVAMKKIGLETARSGIAHTMEEALAVAADVGFPCIIRPSFTMGGSGGGIAYNREEFEEICARGLDLSPTKELLIDESLIGWKEYEMEVVRDKNDNCIIVCSIENFDAMGIHTGDSITVAPAQTLTDKEYQIMRNASMAVLREIGVETGGSNVQFAVNPKNGRLIVIEMNPRVSRSSALASKATGFPIAKVAAKLAVGYTLDELMNDITGGRTPASFEPSIDYVVTKIPRFNFEKFAGANDRLTTQMKSVGEVMAIGRTQQESLQKALRGLEVGATGFDPKVSLDDPEALTKIRRELKDAGADRIWYIADAFRAGLSVDGVFNLTNIDRWFLVQIEELVRLEEKVAEVGITGLNADFLRQLKRKGFADARLAKLAGVREAEIRKLRDQYDLHPVYKRVDTCAAEFATDTAYMYSTYEEECEANPSTDREKIMVLGGGPNRIGQGIEFDYCCVHASLALREDGYETIMVNCNPETVSTDYDTSDRLYFEPVTLEDVLEIVRIEKPKGVIVQYGGQTPLKLARALEAAGVPVIGTSPDAIDRAEDRERFQHAVERLKLKQPANATVTAIEMAVEKAKEIGYPLVVRPSYVLGGRAMEIVYDEADLRRYFQTAVSVSNDAPVLLDHFLDDAVEVDVDAICDGEMVLIGGIMEHIEQAGVHSGDSACSLPAYTLSQEIQDVMRQQVQKLAFELQVRGLMNVQFAVKNNEVYLIEVNPRAARTVPFVSKATGVPLAKVAARVMAGKSLAEQGVTKEVIPPYYSVKEVVLPFNKFPGVDPLLGPEMRSTGEVMGVGRTFAEAFAKAQLGSNSTMKKHGRALLSVREGDKERVVDLAAKLLKQGFELDATHGTAIVLGEAGINPRLVNKVHEGRPHIQDRIKNGEYTYIINTTSGRRAIEDSRVIRRSALQYKVHYDTTLNGGFATAMALNADATEKVISVQEMHAQIK
**Q.** For B1, which “Activity, (CP)” value (Substrate: 5 mM Gln) is on record?
**A.** 1350 nmol/mg/min

**Q.** And the “Activity, (CP)” value (Substrate: 5 mM Gln, Allosteric effector: 10 mM UMP)?
**A.** 170 nmol/mg/min

**Q.** What about the “Activity, (CP)” value (Substrate: 200 mM (NH4)2SO4) of the same molecule?
**A.** 425 nmol/mg/min
